Measured values as given in publication PMC9966149, “The Dynamic Interactions of a Multitargeting Domain in Ameloblastin Protein with Amelogenin and Membrane” (International Journal of Molecular Sciences, 2023).

T1: tryptophan-free recombinant porcine amelogenin (rP172-W25Y/W45Y/W161Y) (porcine, UniProt P45561 17-189, W25Y | W45Y | W161Y)
T1 construct: all three tryptophans changed to tyrosine; also called rP172-W0; recombinant Amel
T1 sequence (looked up): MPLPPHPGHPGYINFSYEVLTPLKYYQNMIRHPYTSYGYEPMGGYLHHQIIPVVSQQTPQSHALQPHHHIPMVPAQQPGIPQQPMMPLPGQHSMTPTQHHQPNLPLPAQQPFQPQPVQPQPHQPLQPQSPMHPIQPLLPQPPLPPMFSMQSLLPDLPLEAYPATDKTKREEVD

B1: tryptophan-free recombinant porcine amelogenin (rP172-W25Y/W45Y/W161Y) (natural protein)
chain: T1 sequence (looked up)
B2: AB2N, the first 20 amino acids of the AB2 sequence (peptide, UniProt O55189 67-86, looked up)
peptide: YSRLGFGKALNSLWLHGLLP
notes: Mouse ameloblastin (Ambn), the first 20 residues of AB2; residues 3-20 of AB2 are stated to be residues 69-86 of mouse Ambn, so the peptide is 67-86; also called AB2 N-terminus; source: synthetic peptide (Biomer Technologies)
B3: xAB2N, extended AB2 N-terminus (peptide, UniProt O55189 51-86, looked up)
peptide: TMRQLGSLQGLNALSQYSRLGFGKALNSLWLHGLLP
notes: source: synthetic peptide (Biomer Technologies)

Assays:
[1] = molecular target: spin-labeled xAB2N and AB2 (all residues); assay: EPR (continuous-wave, site-directed spin labelling); 15 uM spin-labeled peptide in 50 mM Tris, pH 7.6, 50 mM NaCl; rP172-W0 added to 15 uM, then to 75 uM; all in solution
[2] = molecular target: T1, tryptophan-free recombinant porcine …; assay: other fluorescence titration; intrinsic tryptophan fluorescence (excitation 295 nm, peak wavelength); 8 uM tryptophan-containing peptide before and after 40 uM rP172-W0, no LUVs; 10 mM Tris-HCl, 50 mM NaCl, final pH 7.4; conditions: both partners purified

Row | Binder | difference between inverse central linewidths (1/LW) of EPR spectra with and without Amel [1] | binding result [2]
1 | B1 | 0.16 to 0.35 G.^-1 | –
2 | B2 | – | binds
3 | B3 | – | binds
